This series is described as follows: protein stability index of a GFP-peptide fusion (yeast GPS) (PSI 1-4); higher = more stable; sorted into four equal gates, so the index is relative within each strain. A digest of the protocol:
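Plasmids isolated from each sorting gate were PCR-amplified and Illumina-sequenced, and barcodes assigned the reads to strains. The gates, four of equal size, were set by GFP/Cherry fluorescence ratio on mid-log cultures in leucine-free medium. These cultures were yeast carrying a pooled library of tiled 17-residue yeast protein peptides fused downstream of GFP on a plasmid that also expresses Cherry. The protein stability index is the sum of every gate's read frequency times its gate number.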

± gives the uncertainty stated by the source.

As to IDHSDESNRQSVIVDSK [ESC2], the protein stability index is, setting by setting: (doa10∆) 3.18 ± 0.13; (pdr5∆) 3.27 ± 0.077; (san1∆) 3.08 ± 0.093; (ubr1∆) 3.51 ± 0.15.

Turning to LIQLQNIFKAEMDSVSK [CSN9], the protein stability index runs as follows: (doa10∆) 2.55 ± 0.08; (pdr5∆) 2.54 ± 0.14; (ubr1∆) 2.81 ± 0.13.

Regarding QYEHLIKGIREYEEWQK [YDL116W/NUP84], the protein stability index runs as follows: (doa10∆) 3.11 ± 0.1; (pdr5∆) 2.99 ± 0.079; (san1∆) 2.88 ± 0.13; (ubr1∆) 2.62 ± 0.083.

For the sequence VTAKLLGFTPGELRSYL [FAS1], the protein stability index reads like this: (doa10∆) 2.91 ± 0.073; (pdr5∆) 2.97 ± 0.11; (san1∆) 2.89 ± 0.1; (ubr1∆) 3.1 ± 0.093.

For the sequence KKRKNKSSGSSMATPTH [ROX3], the protein stability index by setting is: (doa10∆) 2.99 ± 0.071; (pdr5∆) 3.12 ± 0.077; (san1∆) 2.96 ± 0.051; (ubr1∆) 3.28 ± 0.063.

TGAPPYYYNTKIYKLEN [YMR129W/POM152]: the protein stability index reads like this: (doa10∆) 2.8 ± 0.063; (pdr5∆) 2.72 ± 0.064; (san1∆) 2.5 ± 0.11; (ubr1∆) 3.17 ± 0.041.

Consider LESTKAETDYVDPKRLA [DSN1], for which the protein stability index runs as follows: (doa10∆) 2.96 ± 0.063; (pdr5∆) 3.19 ± 0.067; (san1∆) 3.04 ± 0.053; (ubr1∆) 3.26 ± 0.075.

KLSKVQLYEDLCRYEDT [MED4]: the protein stability index is, setting by setting: (doa10∆) 2.88 ± 0.069; (pdr5∆) 3.29 ± 0.12; (san1∆) 3.32 ± 0.11; (ubr1∆) 3.21 ± 0.071.

For the sequence YAKDILQKEFLPHITQL [RPB2], the protein stability index is, setting by setting: (doa10∆) 1.76 ± 0.047; (pdr5∆) 1.8 ± 0.04; (san1∆) 1.4 ± 0.065; (ubr1∆) 1.38 ± 0.031.

Take TPIAGRFTPGSFTNYIT [RPS0A]: the protein stability index was found to be 3.01 ± 0.11 (doa10∆), 2.99 ± 0.072 (pdr5∆), 2.97 ± 0.082 (san1∆) and 3.16 ± 0.1 (ubr1∆).

Turning to NLSIDEVAVPDRVAKVL [RPO31], the protein stability index came out at 3.09 ± 0.076 (doa10∆), 3.05 ± 0.073 (pdr5∆), 3.11 ± 0.06 (san1∆) and 3.22 ± 0.045 (ubr1∆).

As for MEYHISNTDETKGENYQ [FAS2], the protein stability index runs as follows: (doa10∆) 3.03 ± 0.12; (pdr5∆) 3.22 ± 0.14; (san1∆) 2.75 ± 0.2.

Consider QSQLNVTLSQLVSVTST [MED8], for which the protein stability index (doa10∆) was found to be 1.39 ± 0.025, the protein stability index (pdr5∆) was found to be 1.79 ± 0.026, the protein stability index (san1∆) is 1.44 ± 0.049 and the protein stability index (ubr1∆) is 1.3 ± 0.019.

With MQVLNTKSETKQENETM [MED11], the protein stability index reads like this: (doa10∆) 2.79 ± 0.081; (pdr5∆) 2.16 ± 0.11; (san1∆) 1.41 ± 0.26; (ubr1∆) 2 ± 0.092.

The sequence TRALQISMNAPVFVDLE [RPO26] displayed a protein stability index (ubr1∆) of 3 ± 0.19.

As for NNEKVVQYLRSVQDLGG [YML031W/NDC1], the protein stability index by setting is: (doa10∆) 3.1 ± 0.2; (pdr5∆) 3.04 ± 0.27; (san1∆) 3.44 ± 0.19; (ubr1∆) 3.61 ± 0.24.

Take NIWGTVRTNRFDIIEES [ECM29]: the protein stability index was 2.23 ± 0.23 (doa10∆), 3.35 ± 0.12 (pdr5∆), 2.54 ± 0.11 (san1∆) and 2.98 ± 0.12 (ubr1∆).

As to LVQQIQKETQKVTKIWS [PRP28], the protein stability index is 2.39 ± 0.06 (doa10∆), 2.58 ± 0.064 (pdr5∆), 2.52 ± 0.058 (san1∆) and 2.26 ± 0.047 (ubr1∆).

With AGANDTSNNETNNGNDD [GRR1], the protein stability index by setting is: (doa10∆) 2.8 ± 0.048; (pdr5∆) 2.23 ± 0.066; (san1∆) 2.87 ± 0.072; (ubr1∆) 2.89 ± 0.059.

Take QAPTELELQVAQAFVEL [RPS7A]: the protein stability index (doa10∆) was found to be 2.53 ± 0.055, the protein stability index (pdr5∆) is 2.82 ± 0.063, the protein stability index (san1∆) was 2.59 ± 0.047 and the protein stability index (ubr1∆) came out at 2.45 ± 0.046.

For the sequence DLAVCATIIGIISTAIA [ECM29], the protein stability index turned out to be 1.95 ± 0.052 (doa10∆), 2.07 ± 0.043 (pdr5∆), 1.99 ± 0.054 (san1∆) and 1.95 ± 0.029 (ubr1∆).

For AGKADTSIRLEGDELEN [SRB4], the protein stability index was found to be 2.67 ± 0.089 (doa10∆), 2.97 ± 0.12 (pdr5∆), 2.91 ± 0.088 (san1∆) and 3.25 ± 0.077 (ubr1∆).

Take NIPKPLNSYHIKNGRIY [RGR1]: the protein stability index came to 2.28 ± 0.04 (doa10∆), 2.18 ± 0.03 (pdr5∆), 1.97 ± 0.047 (san1∆) and 2.14 ± 0.027 (ubr1∆).

IRAIRKVISEILTKEVQ [RPS1A]: the protein stability index was found to be 1.714 ± 0.013 (doa10∆), 1.89 ± 0.012 (pdr5∆), 1.83 ± 0.021 (san1∆) and 1.966 ± 0.011 (ubr1∆).

For the sequence REGRHSGYGKRKGTREA [RPL19A], the protein stability index is, setting by setting: (pdr5∆) 3.21 ± 0.27; (ubr1∆) 3.52 ± 0.25.

For the sequence GNIFADLLPNSFAKLVP [SMC2], the protein stability index by setting is: (doa10∆) 2.36 ± 0.045; (pdr5∆) 2.86 ± 0.04; (san1∆) 2.58 ± 0.05; (ubr1∆) 2.62 ± 0.043.

(Values after the supplement of paper PMC9732359.)
